{"source": "paper PMC11231019", "about": "“A pH-dependent shift of redox cofactor specificity in a benzyl alcohol dehydrogenase of aromatoleum aromaticum EbN1” (Applied Microbiology and Biotechnology, 2024)", "molecules": {"B1": {"name": "BaDH (benzyl alcohol dehydrogenase) (Aromatoleum aromaticum EbN1) (protein)", "chain": "MKIQAAVTPAQGEDFTIEKVTLAPPKLNEVLVRVVATGVCHTDAVARDLGISPYPIVLGHEGSGIVEQIGENVTSLEVGDHVVMSFAHCGQCENCLTGHPTVCSRFNELNFGGRMEDGTCRLHQGDTELSTFFGQSSFGTHVVAHERNVVKVDKDVDLALLGPLGCGIQTGAGTVLNRLKPAFGTSIAVYGCGAVGLSAIMAAKIAGCQQIFAIDVHESRLQLAGELGATHVLNGKEVDVVKEIKEASMGGTHYAVESTGVPPVVRQCLHALRPLGQAAIVGVTPEMNIDVHNDLMAEGKSMIGVIEGDSVPRVFIPKLVEFFKAGKFPFDKLVKFYRFDQINQAFEDSANGIAVKPVLRLA", "notes": "full-length, C-terminal Twin-Strep-tag kept, expressed in E. coli BL21(DE3), Strep-tactin purified; Zn (catalytic) and Zn/Fe (structural)"}}, "key": {"[1]": {"molecular_target": "T1, BaDH (benzyl alcohol dehydrogenase) (Aromatoleum aromaticum, UniProt Q5P459)", "T1 construct": "gene adh; full-length, C-terminal Twin-Strep-tag kept, expressed in E. coli BL21(DE3), Strep-tactin purified; Zn (catalytic) and Zn/Fe (structural)", "T1 sequence (Q5P459 1-362)": "B1 chain", "test": "photometric NADH formation, […] nm; Michaelis-Menten with substrate inhibition fit", "type": "biochemical", "conditions": "substrate inhibition constant; NAD+, pH 8.0, 30 °C"}, "[2]": {"substrate": "NC(=O)C1=CN([C@@H]2O[C@H](COP(=O)(O)OP(=O)(O)OC[C@H]3O[C@@H](n4cnc5c(N)ncnc54)[C@H](OP(=O)(O)O)[C@@H]3O)[C@@H](O)[C@H]2O)C=CC1", "test": "photometric NADPH consumption; Hill fit with substrate inhibition", "type": "biochemical, Aromatoleum aromaticum", "conditions": "apparent, fixed benzaldehyde, pH 5.5, 30 °C, cooperative, Hill n 1.38, Kis constrained to Km, kcat called overestimated by authors, varied: cofactor", "source_text": "photometric NADPH consumption; Hill fit with substrate inhibition on BaDH (benzyl alcohol dehydrogenase)"}, "[3]": {"substrate": "NC(=O)C1=CN([C@@H]2O[C@H](COP(=O)(O)OP(=O)(O)OC[C@H]3O[C@@H](n4cnc5c(N)ncnc54)[C@H](O)[C@@H]3O)[C@@H](O)[C@H]2O)C=CC1", "test": "purified protein", "type": "biochemical, Aromatoleum aromaticum", "conditions": "apparent, fixed benzaldehyde, pH 7.0, 30 °C, extrapolated, saturation not reached, probably underestimated per authors (text: no reliable constants), varied: cofactor"}, "[4]": {"substrate": "OCc1ccccc1", "test": "purified protein", "type": "biochemical, Aromatoleum aromaticum", "conditions": "apparent, oxidation with NAD+, pH 8.0, 30 °C, substrate inhibition, kcat called overestimated by authors"}, "[5]": {"substrate": "O=Cc1ccccc1", "test": "photometric NADH consumption; Michaelis-Menten with substrate inhibition fit", "type": "biochemical, Aromatoleum aromaticum", "conditions": "apparent, reduction with NADH, pH 7.0, 30 °C, Kis constrained to >= Km, kcat called overestimated by authors", "source_text": "photometric NADH consumption; Michaelis-Menten with substrate inhibition fit on BaDH (benzyl alcohol dehydrogenase)"}, "[6]": {"substrate": "NC(=O)c1ccc[n+]([C@@H]2O[C@H](COP(=O)(O)OP(=O)(O)OC[C@H]3O[C@@H](n4cnc5c(N)ncnc54)[C@H](OP(=O)(O)O)[C@@H]3O)[C@@H](O)[C@H]2O)c1", "test": "photometric NADPH formation; Hill fit with substrate inhibition", "type": "biochemical, Aromatoleum aromaticum", "conditions": "apparent, fixed benzyl alcohol, pH 6.5, 30 °C, cooperative, Hill n 2.44, Kis constrained to Km, kcat called overestimated by authors, varied: cofactor", "source_text": "photometric NADPH formation; Hill fit with substrate inhibition on BaDH (benzyl alcohol dehydrogenase)"}, "[7]": {"substrate": "NC(=O)c1ccc[n+]([C@@H]2O[C@H](COP(=O)(O)OP(=O)(O)OC[C@H]3O[C@@H](n4cnc5c(N)ncnc54)[C@H](O)[C@@H]3O)[C@@H](O)[C@H]2O)c1", "test": "photometric NADH formation; Michaelis-Menten fit", "type": "biochemical, Aromatoleum aromaticum", "conditions": "apparent, fixed benzyl alcohol, pH 8.0, 30 °C, varied: cofactor", "source_text": "photometric NADH formation; Michaelis-Menten fit on BaDH (benzyl alcohol dehydrogenase)"}}}
{"molecule": "OCc1ccccc1", "note": "[BAlc, benzyl alcohol]", "values": [{"measurement": "Kis", "setting": "[1]", "value": 4.37, "unit": "mM"}]}
{"molecule": "B1", "values": [{"measurement": "K0.5", "setting": "[2]", "value": 3.42, "unit": "mM"}, {"measurement": "Vmax", "setting": "[2]", "value": 159, "unit": "µmol/min/mg"}, {"measurement": "kcat", "setting": "[2]", "value": 110, "unit": "s⁻¹"}, {"measurement": "kcat/Km", "setting": "[2]", "value": 32000, "unit": "M⁻¹ s⁻¹"}, {"measurement": "Km", "setting": "[3]", "value": 3.69, "unit": "mM"}, {"measurement": "Vmax", "setting": "[3]", "value": 320, "unit": "µmol/min/mg"}, {"measurement": "kcat", "setting": "[3]", "value": 222, "unit": "s⁻¹"}, {"measurement": "kcat/Km", "setting": "[3]", "value": 60000, "unit": "M⁻¹ s⁻¹"}, {"measurement": "Km", "setting": "[4]", "value": 3.62, "unit": "mM"}, {"measurement": "Vmax", "setting": "[4]", "value": 410, "unit": "µmol/min/mg"}, {"measurement": "kcat", "setting": "[4]", "value": 693, "unit": "s⁻¹"}, {"measurement": "kcat/Km", "setting": "[4]", "value": 191000, "unit": "M⁻¹ s⁻¹"}, {"measurement": "Km", "setting": "[5]", "value": 1.78, "unit": "mM"}, {"measurement": "Vmax", "setting": "[5]", "value": 345, "unit": "µmol/min/mg"}, {"measurement": "kcat", "setting": "[5]", "value": 239, "unit": "s⁻¹"}, {"measurement": "kcat/Km", "setting": "[5]", "value": 134000, "unit": "M⁻¹ s⁻¹"}, {"measurement": "K0.5", "setting": "[6]", "value": 2.39, "unit": "mM"}, {"measurement": "Vmax", "setting": "[6]", "value": 54.1, "unit": "µmol/min/mg"}, {"measurement": "kcat", "setting": "[6]", "value": 37.5, "unit": "s⁻¹"}, {"measurement": "kcat/Km", "setting": "[6]", "value": 16000, "unit": "M⁻¹ s⁻¹"}, {"measurement": "Km", "setting": "[7]", "value": 1.67, "unit": "mM"}, {"measurement": "Vmax", "setting": "[7]", "value": 84.2, "unit": "µmol/min/mg"}, {"measurement": "kcat", "setting": "[7]", "value": 58.4, "unit": "s⁻¹"}, {"measurement": "kcat/Km", "setting": "[7]", "value": 35000, "unit": "M⁻¹ s⁻¹"}]}
